The source of these data is patent publication US20200025759A1 (PANASONIC INTELLECTURAL PROPERTY MANAGEMENT, published 2020).

The target in assay [1] is recombinant nucleoprotein (NP) protein derived from influenza virus H1N1 to which a Flag tag was fus (influenza virus H1N1).
The target of assay [2] is intranuclear protein derived from type-A influenza virus H7N7 (A/seal/Massachusetts/1/1980) (type-A influenza virus H7N7 …, UniProt P26053 1-498). Briefly: ELISA, virus solution immobilized on plate, anti-His-HRP detection.
The target of assay [3] is intranuclear protein derived from type-A influenza virus H11N6 (A/duck/England/1/1956) (type-A influenza virus H11N6 …, UniProt P26062 1-498). Described as above.
Assay [4] concerns the target intranuclear protein derived from type-A influenza virus H1N1 (A/Puerto Rico/8/34/Mount Sinai) (type-A influenza virus H1N1 (A/Puerto …, UniProt P03466 1-498)). Described as above.
Assay [5] deals with recombinant intranuclear protein (SEQ ID NO: 24) derived from a type-A influenza virus H1N1 (A/Puert (type-A influenza virus H1N1 (A/Puerto …, UniProt P03466 1-498))). The assay is described as follows: phage ELISA on immobilized NP, anti-M13 detection, absorbance at 450 nm. In general terms: ELISA stands for enzyme-linked immunosorbent assay.

What is called Kd is the concentration at which binding is half-saturated.

intranuclear protein derived from type-A influenza virus H11N6 (A/duck/England/1/1956), sequence (P26062 whole entry): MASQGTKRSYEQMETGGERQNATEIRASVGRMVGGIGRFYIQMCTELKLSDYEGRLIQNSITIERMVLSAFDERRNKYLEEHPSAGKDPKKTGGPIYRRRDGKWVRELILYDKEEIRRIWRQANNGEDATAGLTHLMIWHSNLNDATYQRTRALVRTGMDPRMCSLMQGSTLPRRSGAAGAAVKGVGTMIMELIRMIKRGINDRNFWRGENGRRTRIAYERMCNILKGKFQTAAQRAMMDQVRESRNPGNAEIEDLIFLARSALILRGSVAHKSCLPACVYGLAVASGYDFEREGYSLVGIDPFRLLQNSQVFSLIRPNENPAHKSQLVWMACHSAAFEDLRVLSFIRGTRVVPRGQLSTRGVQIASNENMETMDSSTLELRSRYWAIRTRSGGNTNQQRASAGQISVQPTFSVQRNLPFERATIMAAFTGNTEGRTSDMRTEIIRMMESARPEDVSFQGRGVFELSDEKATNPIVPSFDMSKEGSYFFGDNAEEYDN
intranuclear protein derived from type-A influenza virus H1N1 (A/Puerto Rico/8/34/Mount Sinai) (type-A influenza virus H1N1, sequence (P03466 whole entry): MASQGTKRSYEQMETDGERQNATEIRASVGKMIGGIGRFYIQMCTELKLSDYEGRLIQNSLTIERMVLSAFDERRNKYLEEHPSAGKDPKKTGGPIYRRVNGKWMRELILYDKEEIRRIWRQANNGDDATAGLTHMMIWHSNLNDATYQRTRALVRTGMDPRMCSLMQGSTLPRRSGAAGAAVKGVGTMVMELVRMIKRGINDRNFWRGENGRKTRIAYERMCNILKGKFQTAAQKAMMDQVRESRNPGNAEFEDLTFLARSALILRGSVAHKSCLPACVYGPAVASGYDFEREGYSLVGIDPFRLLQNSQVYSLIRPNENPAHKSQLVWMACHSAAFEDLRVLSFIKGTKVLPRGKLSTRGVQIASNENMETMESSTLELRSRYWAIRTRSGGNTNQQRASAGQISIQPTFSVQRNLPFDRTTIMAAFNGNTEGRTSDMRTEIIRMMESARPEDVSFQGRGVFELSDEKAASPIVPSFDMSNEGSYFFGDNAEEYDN
recombinant intranuclear protein (SEQ ID NO: 24) derived from a type-A influenza virus H1N1 (A/Puert (type-A influenza virus H1N1, sequence (P03466 whole entry): as above
recombinant nucleoprotein (NP) protein derived from influenza virus H1N1 to which a Flag tag was fus (influenza virus H1N1), sequence (P03466 whole entry): as above
intranuclear protein derived from type-A influenza virus H7N7 (A/seal/Massachusetts/1/1980), sequence (P26053 whole entry): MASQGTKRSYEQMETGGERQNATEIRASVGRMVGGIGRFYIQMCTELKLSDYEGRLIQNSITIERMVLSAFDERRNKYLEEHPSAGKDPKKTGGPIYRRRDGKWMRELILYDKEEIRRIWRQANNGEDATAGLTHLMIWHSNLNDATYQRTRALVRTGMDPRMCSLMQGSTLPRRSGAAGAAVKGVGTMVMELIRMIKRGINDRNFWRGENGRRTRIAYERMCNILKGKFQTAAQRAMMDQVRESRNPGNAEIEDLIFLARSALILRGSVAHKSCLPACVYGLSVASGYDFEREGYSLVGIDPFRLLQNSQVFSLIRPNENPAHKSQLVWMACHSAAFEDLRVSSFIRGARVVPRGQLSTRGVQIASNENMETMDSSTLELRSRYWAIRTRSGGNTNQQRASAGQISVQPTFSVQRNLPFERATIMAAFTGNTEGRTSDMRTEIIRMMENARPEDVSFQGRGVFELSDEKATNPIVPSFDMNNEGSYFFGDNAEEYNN

B1: VHH antibody consisting of the amino acid sequence represented by SEQ ID NO: 8 (VHH)
VHH: QVQLVESGGGLVQAGGSLRLSCIASGSIFSPNVMGWYRQAPGKPRELVAAITLGESTNYADSVKGRFTISRSNAENTVYLQMDSLKPEDTAVYYCNAGPILERVGPYWGQGTQVTVSS
For B1, in assay [1], the dissociation constant (Kd) came to 0.826 nM. Further, the binding result in assay [2], in assay [3] and in assay [4] was “binds” each time.

B2: phage-displayed VHH antibody (protein synthesized from the DNA sequence represented by SEQ ID NO: 18, i.e. SEQ ID NO: 8) (VHH)
VHH: B1 VHH
With B2, the binding result in assay [5] is given as “binds”.
